From US12605458B2, “Antibody-drug conjugate having acidic self-stabilization junction” (priority 2017, dated 2026)

What was measured:
[1] = Plasma stability in vitro (DAR by RP-HPLC after incubation in human plasma); format: in vitro ADME; conditions: 37° C.
Procedure: A fixed amount of ADC sample was added to human plasma for which human IgG had already been removed, with each ADC tube prepared in triplicate; next, incubation in a 37° C. water bath was performed for 0 hours and 72 hours, after which the ADC sample was removed and 100 μl of Protein A (MabSelect SuRe™ LX Lot: #10221479GE, washed with PBS) was added to each tube; adsorption was then allowed to proceed under agitation on a vertical mixer for two hours, followed by washing and elution to obtain incubated ADC; the plasma stability of each incubated ADC sample was then determined via RP-HPLC.

[2] = SEC-HPLC detection of degree of aggregation; format: physicochemical; conditions: 280 nm
Procedure: ADC samples obtained via conjugation were centrifuged at 14,000 rpm for five minutes and the supernatant was taken for analysis. Instrument: Waters e2695 (2489UV/Vis) Chromatography column: TSKgel G3000SWXL (7.8×300 mm, 5 μm) Mobile phase: A: 50 mM PB, 300 mM NaCl, 200 mM Arg, 5% IPA, pH 6.5 Mobile Phase A was eluted isocratically for 30 minutes; flow rate: 0.714 ml/min, column temperature: 25° C., detection wavelength: 280 nm.

[3] = Hydrophobic interaction chromatography (HIC) assay; format: physicochemical; conditions: eight drug units per antibody, FIG. 4
Procedure: ADC analysis was performed using hydrophobic interaction chromatography (HIC). Elution was performed using 0 to 100% Mobile Phase B (MPB), where Mobile Phase A (MPA) consisted of 1.5 M ammonium sulfate and 0.025 M sodium phosphate, and MPB consisted of 0.025 M sodium phosphate and 25% isopropanol. The sample loading volume was approximately 20 μg, and gradient elution was completed in 15 minutes. 280 nm UV was used for detection, and the stronger the […] sample, the later the peak produced.
Following complete reduction of IgG1 antibody to 8 thiols per antibody according to General Procedure A, corresponding antibody-drug conjugates were prepared via non-specific coupling. ADCs with acidic stabilization junctions and conventional junctions ADC (i.e., MC-VC-PAB-MMAE) with eight drug units per antibody were further separated and purified via hydrophobic interaction chromatography and hydrophobic interaction chromatography (HIC) was used to perform an ADC analysis according to General Procedure C. ADCs with greater hydrophobicity, or larger drug/molecule ratios eluted at later retention times.

## MC-VC-PAB-MMAE
[1]; human plasma with human IgG removed, 0 hours, RP-HPLC
  0 h DAR: 7.2
[1]; human plasma with human IgG removed, 72 hours, RP-HPLC
  72 h DAR: 2.3
[1]; human plasma, 72 hours
  drug loss / change in DAR during plasma incubation (in words): very significant reduction in DAR
[2]
  Aggregation Rate: 32.46%
  Monomer Ratio: 67.51%
[3]
  HIC retention time (hydrophobicity, in words): longest retention time
